Laboratory results published in patent publication US11572572B2, “A138T mutation-containing plant EPSPS mutant, and encoding gene and application thereof” (GEVOTO LLC, priority 2017, dated 2023).

Tested on: transgenic rice seedlings
Test: Glyphosate resistance of EPSPS mutants in transgenic rice sprayed with glyphosate (Example 8)
Format: in vivo, rice (Nipponbare)
Source text: The glyphosate resistance of the EPSPS mutants of the above examples in transgenic rice was detected by the following method.
Plasmids of monoclonal resistant strain comprising pADV5-EPSPS of Examples 1-4 (containing the EPSPS mutant genes) were extracted in accordance with a conventional method. They were subjected to double enzymatic digestion with Pacl and BstEII to recover small fragments, and then the small fragments were ligated, using T4 DNA ligase, to a pGVP1 vector subjected to double enzymatic digestion in the same manner, to obtain a pGVP1-EPSPS vector having a structure as shown in FIG. 8.
The pGVP1-EPSPS vector was transformed into EHA105 (Agrobacterium tumefaciens) competent cells, and single clones were picked out for colony PCR detection to obtain positive strains. Then, the positive strains were inoculated into and propagated in 1 mL of a YEP medium containing 50 μg·mL^−1 kanamycin and 50 μg·mL^−1 rifampicin, and stored at −80° C. or used in subsequent experiments.
400 ul of a strain containing the target gene vector stored at −80° C. was added to a culture dish with a solid medium containing YEP+50 μg/mL rifampicin+50 μg/mL kanamycin and cultured in the dark at 28° C. for 24 hours, and then the bacterium was added to an infection medium and adjusted to OD=0.2 as an infection solution.
Disinfection and Pre-culture: seeds of mature rice (Nipponbare) were manually dehulled. Full seeds with no bacterial plaques were selected and disinfected in accordance with the following steps: the seeds were placed in a 50 ml sterile centrifuge tube and disinfected with the added 70% ethanol in water for 30 seconds, ethanol solution was poured out, and the seeds were washed once with sterile water; 10 to 20 ml of 2.6% sodium hypochlorite solution was added to soak and disinfect the seeds for 20 minutes. The sodium hypochlorite solution was poured out, and the seeds were soaked and washed with sterile water for 6 or 7 times, for 3 minutes each time.
Induction and Subculture: the seeds were placed on and blotted with sterile filter paper, and the mature embryos were placed in an induction medium, with 12 embryos per dish. After the operation was completed, the culture dishes were sealed with parafilm and underwent culturing in the dark at 30° C. for 21 to 28 days. Callus tissue was transferred to a fresh medium and continued to be cultured for about 7 to 14 days. Spherical callus tissue with a dimension of 1 to 2 mm was taken as an infection receptor.
The callus tissue was placed into a centrifuge tube or culture cup, infected in the prepared Agrobacterium suspension added thereto for 10 minutes, and shaken several times during the period; the bacterial solution was poured out, the callus tissue was taken out and placed on sterile filter paper for absorbing the bacterial solution from its surface (for about 30 minutes); the callus tissue was placed on sterile filter paper in culture dishes and cultured in the dark at 25° C. for 2 or 3 days.
Recovery Culture: the co-cultured callus tissue was inoculated on a recovery medium and cultured in the dark at 30° C. for 5 to 7 days.
Primary Screening: the callus was transferred to screening medium 1 (51) and cultured in the dark at 30° C. for 14 days.
Secondary Screening: the callus was then transferred to screening medium 2 (S2) and cultured in the dark at 30° C. for 14 days.
Primary Differentiation: the screened resistant callus tissue was transferred to a differentiation medium and cultured for about 21 days at 30° C. under exposure to light for 19 hours.
Secondary Differentiation: new young shoots were selected and moved to a fresh differentiation medium and continued to be cultured for about 21 days.
When the new seedlings grew to about 2 cm, they were moved to a rooting medium and cultured for 3 to 4 weeks at 30° C. under exposure to light (for 16/8 h). […]

[1] = 1X dose glyphosate (1,060 g/ha), day 10 after spraying
[2] = 2X dose glyphosate (2,120 g/ha) on survivors of 1X, after another 10 days
[3] = 5X dose glyphosate (5,300 g/ha) on survivors of 2X, after additional 10 days
[4] = 20X dose glyphosate (21,200 g/ha) on survivors of 5X, after further 10 days

| Molecule | % ++&+++ (percentage of moderately and highly glyphosate resistant plants in total plants observed) [1] [%] | plant number with resistance + (low glyphosate resistant) [1] | plant number with resistance ++ (moderately glyphosate resistant) [1] | plant number with resistance +++ (highly glyphosate resistant) [1] | % ++&+++ (percentage of moderately and highly glyphosate resistant plants in total plants observed) [2] [%] | plant number with resistance + (low glyphosate resistant) [2] | plant number with resistance ++ (moderately glyphosate resistant) [2] | plant number with resistance +++ (highly glyphosate resistant) [2] | plant number with resistance − (non-glyphosate resistant, withered or dead) [2] | % ++&+++ (percentage of moderately and highly glyphosate resistant plants in total plants observed) [3] [%] | plant number with resistance + (low glyphosate resistant) [3] | plant number with resistance ++ (moderately glyphosate resistant) [3] | plant number with resistance +++ (highly glyphosate resistant) [3] | plant number with resistance − (non-glyphosate resistant, withered or dead) [3] | % ++&+++ (percentage of moderately and highly glyphosate resistant plants in total plants observed) [4] [%] | plant number with resistance + (low glyphosate resistant) [4] | plant number with resistance ++ (moderately glyphosate resistant) [4] | plant number with resistance +++ (highly glyphosate resistant) [4] | plant number with resistance − (non-glyphosate resistant, withered or dead) [4] | level of glyphosate resistance of transformed rice seedlings compared with the mutant lacking the A138T mutation (R4 for R5, T1 for T2) (in words) (each of 1×, 2×, 5×, and 20× glyphosate doses) |
| --- | --- | --- | --- | --- | --- | --- | --- | --- | --- | --- | --- | --- | --- | --- | --- | --- | --- | --- | --- | --- |
| T1: Triticum aestivum EPSPS mutant containing G113(96)A and P118(101)S (SEQ ID NO: 4), gene SEQ ID NO: 21; Control Group 2 of Example 7 (protein, Triticum aestivum EPSPS mutant with mutations G113(96)A and P118(101)S) MATSVAAPAAPAGAEEVVLQPIREISGAVQLPGSKSLSNRILLLSALSEGTTVVDNLLNSEDVHYMLEALEALGLSVEADKVAKRAVVVGCGGRFPVEKDAKEEVKLFLGNAATAMRSLTAAVVAAGGNATYVLDGVPRMRERPIGDLVVGLQQLGADVDCFLGTNCPPVRINGKGGLPGGKVKLSGSISSQYLSSLLMAAPLALEDVEIEIIDKLISVPYVEMTLKLMEHFGVTAEHSDSWDRFYIKGGQKYKSPGNAYVEGDASSASYFLAGAAITGGTVTVEGCGTTSLQGDVKFAEVLEMMGAKVTWTDTSVTVTGPPRQPFGRKHLKAVDVNMNKMPDVAMTLAVVALFADGPTAIRDVASWRVKETERMVAIRTELTKLGATVEEGPDYCIITPPEKLNITAIDTYDDHRMAMAFSLAACAEVPVTIRDPGCTRKTFPNYFDVLSTFVKN | 70.0 | 1 | 7 | 14 | 36.7 | 4 | 1 | 10 | 15 | 36.7 | 4 | 7 | 4 | 15 | 13.3 | 7 | 4 | 0 | 19 | – |
| R5: Oryza sativa EPSPS mutant containing G111(96)A, P116(101)S, and A155(138)T (SEQ ID NO: 9), encoding gene SEQ ID NO: 19 (protein, Oryza sativa EPSPS mutant with mutations G111(96)A, P116(101)S, and A155(138)T) MASNAAAAAAKAEEIVLQPIREISGAVQLPGSKSLSNRILLLSALSEGTTVVDNLLNSEDVHYMLEALKALGLSVEADKVAKRAVVVGCGGKFPVEKDAKEEVQLFLGNAATAMRSLTAAVTAAGGNATYVLDGVPRMRERPIGDLVVGLKQLGTDVDCFLGTECPPVRVKGIGGLPGGKVKLSGSISSQYLSALLMAAPLALGDVEIEIIDKLISIPYVEMTLRLMERFGVKAEHSDSWDRFYIKGGQKYKSPGNAYVEGDASSASYFLAGAAITGGTVTVQGCGTTSLQGDVKFAEVLEMMGAKVTWTDTSVTVTGPPREPYGKKHLKAVDVNMNKMPDVAMTLAVVALFADGPTAIRDVASWRVKETERMVAIRTELTKLGASVEEGPDYCIITPPEKLNITAIDTYDDHRMAMAFSLAACADVPVTIRDPGCTRKTFPNYFDVLSTFVRN | 92.0 | 0 | 0 | 23 | 84.0 | 0 | 1 | 20 | 4 | 76.0 | 2 | 2 | 17 | 4 | – | 1 | 6 | 13 | 5 | higher levels of glyphosate resistance |
| R4: Oryza sativa EPSPS mutant containing G111(96)A and P116(101)S (SEQ ID NO: 8), encoding gene SEQ ID NO: 18 (protein, Oryza sativa EPSPS mutant with mutations G111(96)A and P116(101)S) MASNAAAAAAKAEEIVLQPIREISGAVQLPGSKSLSNRILLLSALSEGTTVVDNLLNSEDVHYMLEALKALGLSVEADKVAKRAVVVGCGGKFPVEKDAKEEVQLFLGNAATAMRSLTAAVTAAGGNATYVLDGVPRMRERPIGDLVVGLKQLGADVDCFLGTECPPVRVKGIGGLPGGKVKLSGSISSQYLSALLMAAPLALGDVEIEIIDKLISIPYVEMTLRLMERFGVKAEHSDSWDRFYIKGGQKYKSPGNAYVEGDASSASYFLAGAAITGGTVTVQGCGTTSLQGDVKFAEVLEMMGAKVTWTDTSVTVTGPPREPYGKKHLKAVDVNMNKMPDVAMTLAVVALFADGPTAIRDVASWRVKETERMVAIRTELTKLGASVEEGPDYCIITPPEKLNITAIDTYDDHRMAMAFSLAACADVPVTIRDPGCTRKTFPNYFDVLSTFVRN | 88.5 | 0 | 0 | 23 | 80.8 | 2 | 1 | 20 | 3 | 69.2 | 3 | 1 | 17 | 5 | 50.0 | 3 | 10 | 3 | 10 | – |
